Test results published in the DeepSol protein solubility set.

Assay: soluble on expression in E. coli; label from the status in PepcDB or PDB records

Sequence	soluble on expression in E. coli
SEIESDPNDGHHHHHRRLHLDLSVDERSPRHGISELLQKLRPEWKPDDIQIKVFTEGITNQLMGCYVGSMTRDPVLLVRVYGQMTELFMDREKEMEMFRVLHKHGCGPQLYCSFNNGICYEFVRGVVLDDTLLHQPSVYRLIATEMGKIHSIKSGDSGARSAVTPVLWSRLSQFLNLLQSADDPEQQRSSADGETPSLEIIMREMEELKSHLARINSPVVLCHNDLLTKNVIYNQEEGAVKFIDYEYADFNYQAYDIGNHFNEFAGIDNVDSSLYPSDELQFDWLSAYLESFKRCSTGDSAVTQTEVQELYEQVCQFSLVAHLFWCLWALLQAKHSTIDFDFQRYARARFNYYFEKKREFCGLTPP	soluble
SELRPSGDSGSSDVDAEISDGFSPLDTSHRDVADEGSLLRRAEMYQDYMKQVPIPTNRGSLIPFTSWVGLSISMKQLYGQPLHYLTNVLLQRWDQSRFGTDSEEQRLDSIIHPTKAEATIWLVEEIHRLTPSHLHMALLWRSDPMYHSFIDPIFPEK	soluble
SEQKSTASGTCGGKPAERGPLAGHMPSSRPHRVDFCWVPGSDPGTFDGSPWLLDRFLAQLGDYMSFHFEHYQDNISRVCEILRRLTGRAQAWAAPYLDGDLPLPDDYELFCQDLKEVVQDPNSFAEYHAVVTCPLPLASSQLPVAPQLPVVRQYLARFLEGLALDMGTAPRSLPAAMATPAVSGSNSVSRSALFEQQLTKESTPGPKEPPVLPSSTCSSKPGPVEPASSQPEEAAPTPVPRLSESANPPAQRPDPAHPGGPKPQKTEEEVLETEGDQEVSLGTPQEVVEAPETPGEPPLSPGF	soluble
SEQTEVLKPRTLADLIRILHQLFAGDEVNVEEVQAIMEAYESDPTEWAMYAKFDQYRYTRNLVDQGNGKFNLMILCWGEGHGSSIHDHTNSHCFLKMLQGNLKETLFAWPDKKSNEMVKKSERVLRENQCAYINDSVGLHRVENISHTEPAVSLHLYSPPFDTCHAFDQRTGHKNKVTMTFHSKFGIRTPNATSGSLENN	soluble
SESSESKASSGLPIDLRGKRAFIAGIADDNGYGWAVAKSLAAAGAEILVGTWVPALNIFETSLRRGKFDQSRVLPDGSLMEIKKVYPLDAVFDNPEDVPEDVKANKRYAGSSNWTVQEAAECVRQDFGSIDILVHSLANGPEVSKPLLETSRKGYLAAISASSYSFVSLLSHFLPIMNPGGASISLTYIASERIIPGYGGGMSSAKAALESDTRVLAFEAGRKQNIRVNTISAGPLGSRAAKAIGFIDTMIEYSYNNAPIQKTLTADEVGNAAAFLVSPLASAITGATIYVDNGLNSMGVALDSPVFKDLDK	soluble
SGEIKVSPDYNWFRGTVPLKKIIVDDDDSKIWSLYDAGPRSIRCPLIFLPPVSGTADVFFRQILALTGWGYRVIALQYPVYWDHLEFCDGFRKLLDHLQLDKVHLFGASLGGFLAQKFAEYTHKSPRVHSLILCNSFSDTSIFNQTWTANSFWLMPAFMLKKIVLGNFSSGPVDPMMADAIDFMVDRLESLGQSELASRLTLNCQNSYVEPHKIRDIPVTIMDVFDQSALSTEAKEEMYKLYPNARRAHLKTGGNFPYLCRSAEVNLYVQIHLLQFHGTKYAAIDPSMVSAEELEVQKGSLGISQEEQ	soluble
SGFEFHGYARSGVIMNDSGASTKSGAYITPAGETGGAIGRLGNQADTYVEMNLEHKQTLDNGATTRFKVMVADGQTSYNDWTASTSDLNVRQAFVELGNLPTFAGPFKGSTLWAGKRFDRDNFDIHWIDSDVVFLAGTGGGIYDVKWNDGLRSNFSLYGRNFGDIDDSSNSVQNYILTMNHFAGPLQMMVSGLRAKDNDERKDSNGNLAKGDAANTGVHALLGLHNDSFYGLRDGSSKTALLYGHGLGAEVKGIGSDGALRPGADTWRIASYGTTPLSENWSVAPAMLAQRSKDRYADGDSYQWATFNLRLIQAINQNFALAYEGSYQYMDLKPEGYNDRQAVNGSFYKLTFAPTFKVGSIGDFFSRPEIRFYTSWMDWSKKLNNYASDDALGSDGFNSGGEWSFGVQMETWF	soluble
SGQLLPQGAYREVPQYWKQAAELINREGAHTRTLVLPAASFARQTWGWTRDEPLQPLLQVPWVVRDAVPLVPPETIRGLDGVLSVVDKGAVDHLGDQLRRIGVGIVVIRHDLVAPHSGDATLTLMRSEFPDIKVHTFGSGKERVDVAILDRQAHGYLTDKLTRVAGGGEALSLLGPGDFILSDSDAEIVTDTPMLAARNYGAARRAISAPLATEAEGKDVGNPVRDYPSAARATRVVERGGHVVASSSAADATAFGGADPTRSITAAVDNDPDTAWFAAPGDRHPWLELQAESPDPHLELRITGKAGKVIIRSNNAHVAADMRPGVPTTIRIPGGATNRVRIEVAPGMGIASAQLIHSPITRVPTLPPAGPSAHTFLFQKVMVDTGLLTRGFETARPIEVTLSASHCERTITIDQVTYACGERFLLPAGYHELSTRSDWVRLSGDGKAGFVDLNGDSVFVTTQAANRGMRAFIGDHELTPISVNAGGQGFIVPKALATDDVLDVIRFEFAGEHTYRR	not soluble
SGSSEDQAYRLLNDYANGFMVSQVLFAACELGVFDLLAEAPGPLDVAAVAAGVRASAHGTELLLDICVSLKLLKVETRGGKAFYRNTELSSDYLTTVSPTSQCSMLKYMGRTSYRCWGHLADAVREGRNQYLETFGVPAEELFTAIYRSEGERLQFMQALQEVWSVNGRSVLTAFDLSVFPLMCDLGGDFFKDPLPEADLYILARVLHDWADGKCSHLLERIYHTCKPGGGILVIESLLDEDRRGPLLTQLYSLNMLVQTEGQERTPTHYHMLLSSAGFRDFQFKKTGAIYDAILARK	soluble
SHMTPDIILQRTGIDVRAVEQGDDAWHKLRLGVITASEVHNVIAKPRSGKKWPDMKMSYFHTLLAEVCTGVAPEVNAKALAWGKQYENDARTLFEFTSGVNVTESPIIYRDESMRTACSPDGLCSDGNGLELKCPFTSRDFMKFRLGGFEAIKSAYMAQVQYSMWVTRKNAWYFANYDPRMKREGLHYVVIERDEKYMASFDEIVPEFIEKMDEALAEIGFVFGEQWR	soluble
SIDSKLQTLGEQLMQGKRGAIVMIEPETGEVLCLVSSPSYDPSLLAGKDRGKNHLEMEHDRNKPLYARAIQATYPPGSTFKPAQGAIFLQEGVIRPTDAFSCYHGFPPLNNRPACHSHGSPLSLVPALATSCNAFFCWGLRAMLDNRRFYPSVQEAFEHWKNRIVGLGFGYRLGLDLPGERRGYIPNSKVYDKAYKGRWNSSTIISISIGQGEILATPLQIANLGVIIANRGRYRRPHVVKAIQGIPLDTAYTNWQNSGISPANMEYIVEGMARAVTGGTCHAANFAPGEIEVCGKTGTAENPHGKDHSAFLGFAPRNNPKVVVSVYVENGGFGAVYGVPIGRVMMEYYLREGKLSPEGEAVATKMSNTAIHYSNVF	not soluble
SKEDCLPSSHVPISDSKSIQKSELLGLLKTYNCYHEGKSFQLRHREEEGTLIIEGLLNIAWGLRRPIRLQMQDDREQVHLPSTSWMPRRPSCPLKEPSPQNGNITAQGPSIQPVHKAESSTDSSGPLEEAEEAPQLMRTKSDASCMSQRRPKCRAPGEAQRIRRHRFSINGHFYNHKTSVFTPAYGSVTNVRVNSTMTTLQVLTLLLNKFRVEDGPSEFALYIVHESGERTKLKDCEYPLISRILHGPCEKIARIFLMEADLGVEVPHEVAQYIKFEMPVLDSFVEKLKEEEEREIIKLTMKFQALRLTMLQRLEQLVEAK	soluble
SKLDSYTHLSFYEKRELFRKKLREIEGPEVTLVNEVDDEPCPSLDFQFISQYRLTQGVIPPDPNFQSGCNCSSLGGCDLNNPSRCECLDDLDEPTHFAYDAQGRVRADTGAVIYECNSFCSCSMECPNRVVQRGRTLPLEIFKTKEKGWGVRSLRFAPAGTFITCYLGEVITSAEAAKRDKNYDDDGITYLFDLDMFDDASEYTVDAQNYGDVSRFFNHSCSPNIAIYSAVRNHGFRTIYDLAFFAIKDIQPLEELTFDYAGAKDFSPVQSQKSQQNRISKLRRQCKCGSANCRGWLFG	soluble
SKREHNHRRITVTAAIGNKHRRQLATNLHAIEHHAFEHFIAWVAENHFEPEADCKLGTRLRHAGVPGQQ	soluble
SKTNHIVIIGYSRIGKCVALSLINRGDPVVIVEESKRLTDKAIADGFEVICGNIIKQDVMNAANMSNAYKVVITMCNTIEVGECIVNIRDMNKDIQIITHTLSDVDTAYLIDLGADIVVTDEEEIANGVIEHITGQRFIKNIAQS	soluble
SKVMTLKDAIAKYVHSGDHIALGGFTTDRKPYAAVFEILRQGITDLTGLGGAAGGDWDMLIGNGRVKAYINCYTANSGVTNVSRRFRKWFEAGKLTMEDYSQDVIYMMWHAAALGLPFLPVTLMQGSGLTDEWGISKEVRKTLDKVPDDKFKYIDNPFKPGEKVVAVPVPQVDVAIIHAQQASPDGTVRIWGGKFQDVDIAEAAKYTIVTCEEIISDEEIRRDPTKNDIPGMCVDAVVLAPYGAHPSQCYGLYDYDNPFLKVYDKVSKTQEDFDAFCKEWVFDLKDHDEYLNKLGATRLINLKVVPGLGYHIDMTKE	soluble
SLAGPKESRDLTLEQFQVNFLDQYTIKHAFINGVNIYRCYPGAPPNNVQMVMQRSHGTEVPGIMVNLEGQQPTVVPLDASIIGAKKLTPTTTRPLHNVRVLRVNAVMRFHPLCRARFVGPNDISFGIRSATSQSIQEHIQELTDLMKKTQQADEQAMGALYSRSSALVSKLKMSGATSNVAFLEVPQTETRWGNPWTWYRAYLPTPLGDGVETWMTPIGDSGYYITVDFNFTESERQKNTENYQRARQLMDSVLQSVVIQKR	soluble
SLDAAVGDVIVTLGADLSESDKQKVLDEMNVPDNATTVTVTNKEEHEYLGKYISNAQIGSRAISSSSITIAKKGSGLNVETHNISGITDEMYLNALMTAGVKDAKVYVTAPFEVSGTAALTGLIKAYEVSSDEAISEDVKQVANQELVTTSELGDKIGNENAAALIAKIKEEFAKNGVPDNKADIEKQVDDAASDLNVTLTDSQKNQLVSLFNKMKNADIDWGQVSDQLDKAKDKITKFIESDEGKNFIQKVIDFFVSIWNAIVSIFK	soluble
SLDIKEIVGDYNSFLDTIFELLIKGGFKENELKELPIDHICYRVSTNEFYNEKKEQLNQLGELLVETEIGGRMISTFKLNKPIQYKDKSIPLIELPAPKKNRINYDGLEHIEMVINEPFQSFVDNHPSPIDENLKFNWVLHALNKDINPDVECEFIDPRIKNEIRTISVKFHHQSLEEVVKYEIQLLKENEG	soluble
SLDPLFTTQILKYKGDESFTCNDTLVREIKLEIFINDEKVGALMATPVDEQALAIGYLMSENIIAKVSDIESIETKDDGMSVHIKAKIDKENLAKLNAEGVVISGCGRAHTANIDPEAIEASKISSDAKFSKDEILKQMSTFYTQCELYEKTGCVHTAKLFVDEKTFFIGEDIAQHNTIDKALGKACLAGVDLSQCFLMVSGRLSSEMVAKAVMHKIPVLVSRTAPTCLGVMIARKFDLTLCGFARENKINIYSGEFRIHG	soluble
SLDSEKVKVLSIEEDNQAEILKELGLPANASYYRIKRVRYSEDTPFLVHITHLPKKLVKEPLSKDLTAYASVYERVRKDFSVDLFSLASVETNEIVFPEDAELLNLLQLSFREPAVKQVKHSYLADGSVAEYIISYKHWKYFKTKIEVEAE	soluble
SLELKITDFKVFVAQANFEWAFVRIYSKDLYGTGEAGPAPGLKGMESEFIQLLIGEDAFKVNRIAEKLRYATLYSGTTVYHLISAINIALYDLIGKYLNVPIYKLLGGDKTEIPVYVDAHGGKGLEAINALHLPVNLPWIKEAEVETNRLITTNNPVHGRLSMEKWNEDYSPEAYAKRALKMKNEGYKAMKFDLDVPTPYIDLRRVRNGDLSLKDIDYMVDIVKAVRESVGDEVEIMFDLHWRYNLNTAIRICKALEPYRLRWLEDPMPAIMAVSNYDELKLLTSQCSVPIETGENLYTVYQFKDLLNTGVRVWAPDIVKAGGITEGRRIAELAAMYDIEYSPHNIASPIGTMAHAHVGSIANTFGFVEFHGHDVPFWNEIVKPKRKIIEDGVIKLTDDPGLGIDLDDEVMRKYWPTYEL	soluble
